Measurements: patent publication US4740588A, “Novel substrate peptides” (Washington University, priority 1986, dated 1988)
Residues, ends and D or L forms follow the SMILES beside them.

Legend:
[1] = biological target: T1, N-myristoylglycylpeptide synthetase (N-myristoyl transferase) (Saccharomyces cerevisiae, UniProt P14743); assay: Assay for N-myristoylglycylpeptide synthetase activity, crude membrane fractions from yeast; format: biochemical; details: for activity as substrate for myristoylglycylpeptide synthetase: result in words
T1 construct: using crude membrane fractions from yeast with changes as indicated; endogenous in cells; host or cells: S. cerevisiae strain JR153 (protease-deficient), crude membrane pellet of the cell lysate
T1 sequence (P14743 1-455): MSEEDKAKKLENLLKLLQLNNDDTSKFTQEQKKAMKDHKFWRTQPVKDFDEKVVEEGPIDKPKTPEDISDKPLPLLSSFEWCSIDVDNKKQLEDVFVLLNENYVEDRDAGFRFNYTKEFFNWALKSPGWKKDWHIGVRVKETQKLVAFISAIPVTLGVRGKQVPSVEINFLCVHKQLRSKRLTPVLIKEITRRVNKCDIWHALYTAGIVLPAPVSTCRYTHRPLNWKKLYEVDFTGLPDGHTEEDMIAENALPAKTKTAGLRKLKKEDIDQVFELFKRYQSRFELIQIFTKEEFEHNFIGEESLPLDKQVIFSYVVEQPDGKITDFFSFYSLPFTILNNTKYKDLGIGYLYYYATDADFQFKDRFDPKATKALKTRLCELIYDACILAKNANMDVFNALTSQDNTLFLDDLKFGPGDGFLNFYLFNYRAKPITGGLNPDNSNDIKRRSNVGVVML
Procedure: The synthetic octapeptide […]was used to identify a unique enzymatic activity which transfers myristic acid to the amino terminal glycine of this and other peptides. […] The enzyme activity was determined in an in vitro assay which measures the transfer of [^3 H]-myristic acid to the acceptor peptide. The transfer reaction is dependent on adenosine triphosphate (ATP) and coenzyme A (CoA). The enzymatic product was then identified by high performance liquid chromatography (HPLC) by co-elution with a chemically synthesized myristoyl peptide standard. […] Both contained M-myristoyl glycine.
Preparation of yeast extract for the assay of N-myristoylglycylpeptide synthetase activity. Yeast cultures were grown as described above to O.D. 660 nm of 1 to 3. Cells from 40 ml of culture were collected by centrifugation at 4° C. at 7600×g for 10 minutes. The supernatant was decanted, the cell pellet was resuspended by pipetting into 1 ml of cold 10 mM Tris, pH 7.4, transferred to a 1.5 ml conical polypropylene centrifuge tube, and the cells were then repelleted at 4° C. at 7600×g for 10 minutes. Cells were resuspended in 400 μl of cold assay lysis buffer (10 mM Tris, pH 7.4, 1 mM dithiothreitol,0.1 mM ethylene glycol-bis(β-aminoethyl ether) N,N,N',N'-tetraacetic acid (EGTA), 10 μg/ml Aprotinin) by pipetting. Approximately 400 μl of 0.5 mm glass beads were added to the resuspended cells, and the cells were lysed by vortexing as described above for lysis of radioactively labeled cells. After allowing the beads to settle, the lysate was collected and cellular debris was removed by centrifugation at 4° C. at 1000×g for 10 minutes. The supernatant was then centrifuged at 4° C. at 45,000 rpm for 30 minutes in a Beckman 75 Ti rotor. The supernatant was removed, and the crude membrane pellet was resuspended by pipetting into 400 μl of cold assay lysis buffer. Aliquots of the three cellular fractions were either assayed immediately or stored at -60° C. The activity associated with crude membranes was stable at -60° C. for at least 3 months. Protein was determined by the method of Peterson, Anal. Biochem. 83, 346-356 (1977).
Assay for N-myristoylglycylpeptide synthetase activity. [^3 H]Fatty acyl CoA was synthesized enzymatically and added to the incubation as follows. […] Typically, 40% to 50% of the [^3 H]fatty acid was converted to its CoA ester by this procedure as measured by determining the radioactivity remaining in the reaction after acidification with 6 N HCl to pH 2.0 and extraction 6 times with 5 volumes of heptane, a modification of the method of Hosaka et al., Meth. […]

[2] = substrate: C[C@H](NC(=O)CN)C(=O)N[C@@H](CCC(N)=O)C(=O)N[C@@H](C)C(=O)N[C@@H](C)C(=O)N[C@@H](C)C(=O)N[C@@H](CCCNC(=N)N)C(=O)N[C@@H](CCCNC(=N)N)C(N)=O; assay: Peptide substrate specificity (Km, Vmax) of partially purified yeast myristoylating enzyme; format: biochemical, S. cerevisiae strain JR153; details: other: peptide as acyl acceptor, 1 μCi [3H]-myristic acid per tube, 30.0 °C
Procedure: (§1) Assay for N-myristoylglycylpeptide synthetase activity. [^3 H]Fatty acyl CoA was synthesized enzymatically and added to the incubation as follows. The acyl CoA synthetase reaction consisted of (per one assay tube): 0.5 μCi of [^3 H]myristic acid; 25 μl of 2× assay buffer (20 mM Tris, pH 7.4, 2 mM dithiothreitol, 10 mM MgCl2, 0.2 mM EGTA); 5 μl of 50 mM ATP in distilled water, adjusted to pH 7.0 with NaOH; 2.5 μl of 20 mM lithium CoA in distilled water; 15 μl of 1mU/μl of Pseudomonas acyl CoA synthetase (Sigma) in 50 mM N-2-hydroxyethylpiperazine-N'-2-ethane sulfonic acid, pH 7.3; 2.5 μl of distilled water. The reaction was allowed to proceed for 20 minutes at 30° C. Typically, 40% to 50% of the [^3 H]fatty acid was converted to its CoA ester by this procedure as measured by determining the radioactivity remaining in the reaction after acidification with 6 N HCl to pH 2.0 and extraction 6 times with 5 volumes of heptane, a modification of the method of Hosaka et al., Meth. […] The assay was initiated by the addition of 10 μl of yeast cell extract (typically 50 μg of protein) per tube, followed by incubation at 30° C. for 10 min. The assay was terminated by the addition of 110 μl of methanol and 10 μl of 100% trichloracetic acid (w/v) per tube, followed by cooling ten minutes on ice. Precipitated protein was removed by centrifugation at 8000×g for 3 minutes in a tabletop Eppendorf centrifuge. […] One minute fractions were collected and the radioactivity in each fraction determined by liquid scintillation counting. [^3 H]-Myristoyl-[sequence]eluted at 24 minutes, while [^3 H]palmitoyl-[sequence]eluted at 30 minutes.
(§2) The peptide substrate specificity of the enzyme was tested under the assay conditions described in Example 2 but using 1 μCi of [^3 H]-myristic acid per assay tube. The yeast enzyme used in this example was partially purified from a crude homogenate of the cultured yeast cells by fractionation with 51-70% (NH4)2 SO4 followed by ion exchange column chromatography with DEAE-Sepharose® CL-6B (Pharmacia) and affinity chromatography with CoA-agarose affinity matrix (Pharmacia).

[3] = substrate: C[C@H](NC(=O)[C@H](C)NC(=O)[C@H](C)NC(=O)[C@H](CO)NC(=O)CN)C(=O)N[C@@H](C)C(=O)N[C@@H](CCCNC(=N)N)C(=O)N[C@@H](CCCNC(=N)N)C(N)=O; assay: as above; format: biochemical, S. cerevisiae strain JR153; details: other: peptide as acyl acceptor, 1 μCi [3H]-myristic acid per tube, 30.0 °C
Procedure: as §1, §2

[4] = substrate: C[C@H](NC(=O)[C@H](C)NC(=O)[C@H](CCCNC(=N)N)NC(=O)[C@H](CC(N)=O)NC(=O)CN)C(=O)N[C@@H](C)C(=O)N[C@@H](CCCNC(=N)N)C(=O)N[C@@H](CCCNC(=N)N)C(N)=O; assay: as above; format: biochemical, S. cerevisiae strain JR153; details: other: peptide as acyl acceptor, 1 μCi [3H]-myristic acid per tube, 30.0 °C
Procedure: as §1, §2

[5] = substrate: C[C@H](NC(=O)[C@H](C)NC(=O)[C@H](C)NC(=O)[C@H](CCC(N)=O)NC(=O)CN)C(=O)N[C@@H](C)C(=O)N[C@@H](CCCNC(=N)N)C(=O)N[C@@H](CCCNC(=N)N)C(N)=O; assay: as above; format: biochemical, S. cerevisiae strain JR153; details: other: peptide as acyl acceptor, 1 μCi [3H]-myristic acid per tube, 30.0 °C
Procedure: as §1, §2

[6] = substrate: C[C@H](NC(=O)[C@H](C)NC(=O)[C@H](Cc1ccccc1)NC(=O)[C@H](CC(N)=O)NC(=O)CN)C(=O)N[C@@H](C)C(=O)N[C@@H](CCCNC(=N)N)C(=O)N[C@@H](CCCNC(=N)N)C(N)=O; assay: as above; format: biochemical, S. cerevisiae strain JR153; details: other: peptide as acyl acceptor, 1 μCi [3H]-myristic acid per tube, 30.0 °C
Procedure: as §1, §2

[7] = substrate: C[C@H](NC(=O)[C@H](C)NC(=O)[C@H](C)NC(=O)[C@H](C)NC(=O)[C@H](CC(N)=O)NC(=O)CN)C(N)=O; assay: as above; format: biochemical, S. cerevisiae strain JR153; details: other: peptide as acyl acceptor, 1 μCi [3H]-myristic acid per tube, 30.0 °C
Procedure: as §1, §2

[8] = substrate: CC(C)C[C@H](NC(=O)[C@@H]1CCCN1C(=O)[C@H](Cc1ccc(O)cc1)NC(=O)[C@H](CO)NC(=O)[C@H](C)NC(=O)[C@H](CCC(=O)O)NC(=O)[C@H](CC(N)=O)NC(=O)CN)C(N)=O; assay: as above; format: biochemical, S. cerevisiae strain JR153; details: other: peptide as acyl acceptor, 1 μCi [3H]-myristic acid per tube, 30.0 °C
Procedure: as §1, §2

[9] = substrate: C[C@H](NC(=O)[C@H](C)NC(=O)[C@H](CCC(=O)O)NC(=O)[C@H](CC(N)=O)NC(=O)CN)C(=O)N[C@@H](C)C(=O)N[C@@H](CCCNC(=N)N)C(=O)N[C@@H](CCCNC(=N)N)C(N)=O; assay: as above; format: biochemical, S. cerevisiae strain JR153; details: other: peptide as acyl acceptor, 1 μCi [3H]-myristic acid per tube, 30.0 °C
Procedure: as §1, §2

[10] = substrate: C[C@H](NC(=O)[C@H](C)NC(=O)[C@H](CC(N)=O)NC(=O)CN)C(=O)N[C@@H](CO)C(N)=O; assay: as above; format: biochemical, S. cerevisiae strain JR153; details: other: peptide as acyl acceptor, 1 μCi [3H]-myristic acid per tube, 30.0 °C
Procedure: as §1, §2

Question: How did the “activity as substrate for myristoylglycylpeptide synthetase” value [1] turn out when `NCC(=O)N[C@@H](CC(N)=O)C(N)=O` [GN, Gly-Asn] (H-Gly-Asn-NH2) was run?
Answer: Its value is “inactive”.

Question: How did the “activity as substrate for myristoylglycylpeptide synthetase” value [1] turn out when `N=C(N)NCCC[C@H](NC(=O)[C@@H]1CCCN1C(=O)CN)C(=O)N1CCC[C@H]1C(N)=O` [GPRP, Gly-Pro-Arg-Pro] (H-GPRP-NH2) was run?
Answer: Its value is “inactive”.

Question: Which results are given for GSSKSPKDPS?
Answer: Rate of Myristoylpeptide Synthesis ([1]; Test 3: 1 mM test peptide added as competitor, 18 μM GlyAsnAlaAlaAlaAlaArgArg substrate, control 26.7): 27.4 DPM × 10^3 /10 min; activity as substrate for myristoylglycylpeptide synthetase [1]: inactive

B1: Yeast Myristoylating Enzyme (Saccharomyces cerevisiae S288C) (protein)
chain: MSEEDKAKKLENLLKLLQLNNDDTSKFTQEQKKAMKDHKFWRTQPVKDFDEKVVEEGPIDKPKTPEDISDKPLPLLSSFEWCSIDVDNKKQLEDVFVLLNENYVEDRDAGFRFNYTKEFFNWALKSPGWKKDWHIGVRVKETQKLVAFISAIPVTLGVRGKQVPSVEINFLCVHKQLRSKRLTPVLIKEITRRVNKCDIWHALYTAGIVLPAPVSTCRYTHRPLNWKKLYEVDFTGLPDGHTEEDMIAENALPAKTKTAGLRKLKKEDIDQVFELFKRYQSRFELIQIFTKEEFEHNFIGEESLPLDKQVIFSYVVEQPDGKITDFFSFYSLPFTILNNTKYKDLGIGYLYYYATDADFQFKDRFDPKATKALKTRLCELIYDACILAKNANMDVFNALTSQDNTLFLDDLKFGPGDGFLNFYLFNYRAKPITGGLNPDNSNDIKRRSNVGVVML
notes: partially purified from a crude homogenate of the cultured yeast cells; endogenous in cells; host or cells: S. cerevisiae strain JR153
Question: With B1 as the molecule, how does the Km [2] read?
Answer: Its Km is 1400 µM.

Question: And the Km [3]?
Answer: Its Km is 1700 µM.

Question: What about the Km [4] of the same molecule?
Answer: The Km was 400 µM.

Question: What about the Km [5] of the same molecule?
Answer: The Km was 70 µM.

Question: What about the Km [6] of the same molecule?
Answer: The Km was 60 µM.

Question: And the Km [7]?
Answer: The Km was 1300 µM.

Question: And the Km [8]?
Answer: Its Km is 2300 µM.

Question: And the Km [9]?
Answer: The Km was 1800 µM.

Question: What about the Km [10] of the same molecule?
Answer: Its Km is 900 µM.
